Laboratory results taken from patent US20110160440A1 (GENENCOR INTERNATIONAL, published 2011).

How the values were obtained:
[1] = target: T1, CEA (carcinoembryonic antigen, Biodesign Intl., Saco, Me.) (UniProt P06731 35-685); assay: CEA-coated plate, binding curves at pH 6.5 and pH 7.4, bound BLA activity
T1 construct: also called immobilized CEA
T1 sequence: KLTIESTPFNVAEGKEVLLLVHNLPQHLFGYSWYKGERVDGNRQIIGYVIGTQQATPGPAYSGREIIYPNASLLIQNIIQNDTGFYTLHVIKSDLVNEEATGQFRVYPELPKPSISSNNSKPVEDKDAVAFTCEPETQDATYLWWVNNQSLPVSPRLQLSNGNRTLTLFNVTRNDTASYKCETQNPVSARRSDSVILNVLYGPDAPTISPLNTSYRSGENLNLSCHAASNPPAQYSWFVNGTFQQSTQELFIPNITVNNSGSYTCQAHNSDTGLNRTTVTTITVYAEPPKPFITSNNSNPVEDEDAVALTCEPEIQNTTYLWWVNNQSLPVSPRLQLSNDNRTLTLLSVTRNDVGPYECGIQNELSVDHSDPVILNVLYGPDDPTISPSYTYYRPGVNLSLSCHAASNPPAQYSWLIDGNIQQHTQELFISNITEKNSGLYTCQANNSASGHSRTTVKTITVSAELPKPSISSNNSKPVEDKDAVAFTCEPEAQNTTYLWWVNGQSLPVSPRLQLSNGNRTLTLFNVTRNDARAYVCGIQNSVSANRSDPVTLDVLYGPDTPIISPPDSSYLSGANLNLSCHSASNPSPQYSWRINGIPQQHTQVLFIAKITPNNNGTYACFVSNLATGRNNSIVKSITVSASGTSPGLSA

[2] = target: T1, CEA (carcinoembryonic antigen, …); assay: screen of library SW155
[3] = target: T1, CEA (carcinoembryonic antigen, …); assay: screen of H3 site saturation mini-libraries for improved affinity

B1: NA08.15 (CAB1.4) (scFv)
chain: QVQLQQSGAELVKSGGSVKLSCTASGFNIKDSYMHWVRQGPEQGLEWIGWIDPENGDTEYAPKFQGKATFTTDTSSNTAYLQLSSLTSEDTAVYYCNEGTPTGPYYFDYWGQGTTVTVSSGGGGSGGGGSGGGGSENVLTQSPAIVSASPGEKVTITCSASSSVSYMHWFQQKPGTSPKLVIYDTSNLASGVPARFSGSGSGTSYSLTISRMEAEDAATYYCQQRDSYPLTFGAGTKLELKRAATPVSEKQLAEVVANTITPLMKAQSVPGMAVAVIYQGKPHYYTFGKADIAANKPVTPQTLFELGSISKTFTGVLGGDAIARGEISLDDAVTRYWPQLTGKQWQGIRMLDLATYTAGGLPLQVPDEVTDNASLLRFYQNWQPQWKPGTTRLYANASIGLFGALAVKPSGMPYEQAMTTRVLKPLKLDHTWINVPKAEEAHYAWGYRDGKAVRVSPGMLDAQAYGVKTNVQDMANWVMANMAPENVADASLKQGIALAQSRYWRIGSMYQGLGWEMLNWPVEANTVVETSFGNVALAPLPVAEVNPPAPPVKASWVHKTGSTGGFGSYVAFIPEKQIGIVMLANTSYPNPARVEAAYHILEALQ
[1]
  binding result: binds

B2: CAB1.7 (clone pSW155.17) (scFv)
chain: QVQLQQSGAELVKSGGSVKLSCTASGFNIKDSYMHWVRQGPEQGLEWIGWIDPENGDTEYAPKFQGKATFTTDTSSNTAYLQLSSLTSEDTAVYYCNEGLPLGAIYNDYWGQGTTVTVSSGGGGSGGGGSGGGGSENVLTQSPAIVSASPGEKVTITCSASSAVYAMHWFQQKPGTSPKLVIYDTSNLASGVPARFSGSGSGTSYSLTISRMEAEDAATYYCQQRDSYPLTFGAGTKLELDRAATPVSEKQLAEVVANTITPLMKAQSVPGMAVAVIYQGKPHYYTFGKADIAANKPVTPQTLFELGSISKTFTGVLGGDAIARGEISLDDAVTRYWPQLTGKQWQGIRMLDLATYTAGGLPLQVPDEVTDNASLLRFYQNWQPQWKPGTTRLYANASIGLFGALAVKPSGMPYEQAMTTRVLKPLKLDHTWINVPKAEEAHYAWGYRDGKAVRVSPGMLDAQAYGVKTNVQDMANWVMANMAPENVADASLKQGIALAQSRYWRIGSMYQGLGWEMLNWPVEANTVVETSFGNVALAPLPVAEVNPPAPPVKASWVHKTGSTGGFGSYVAFIPEKQIGIVMLANTSYPNPARVEAAYHILEALQ
notes: scFv-BLA fusion
[2]
  binding result: binds

B3: clone pSW134.1 (scFv)
chain: QVQLQQSGAELVKSGGSVKLSCTASGFNIKDSYMHWVRQGPEQGLEWIGWIDPENGDTEYAPKFQGKATFTTDTSSNTAYLQLSSLTSEDTAVYYCNEGLPTGPYYNDYWGQGTTVTVSSGGGGSGGGGSGGGGSENVLTQSPAIVSASPGEKVTITCSASSSVSYMHWFQQKPGTSPKLVIYDTSNLASGVPARFSGSGSGTSYSLTISRMEAEDAATYYCQQRDSYPLTFGAGTKLELKRAATPVSEKQLAEVVANTITPLMKAQSVPGMAVAVIYQGKPHYYTFGKADIAANKPVTPQTLFELGSISKTFTGVLGGDAIARGEISLDDAVTRYWPQLTGKQWQGIRMLDLATYTAGGLPLQVPDEVTDNASLLRFYQNWQPQWKPGTTRLYANASIGLFGALAVKPSGMPYEQAMTTRVLKPLKLDHTWINVPKAEEAHYAWGYRDGKAVRVSPGMLDAQAYGVKTNVQDMANWVMANMAPENVADASLKQGIALAQSRYWRIGSMYQGLGWEMLNWPVEANTVVETSFGNVALAPLPVAEVNPPAPPVKASWVHKTGSTGGFGSYVAFIPEKQIGIVMLANTSYPNPARVEAAYHILEALQ
[3]
  binding result: binds

B4: clone pSW129.5 (scFv)
chain: QVQLQQSGAELVKSGGSVKLSCTASGFNIKDSYMHWVRQGPEQGLEWIGWIDPENGDTEYAPKFQGKATFTTDTSSNTAYLQLSSLTSEDTAVYYCNEGLPLGPYYFDYWGQGTTVTVSSGGGGSGGGGSGGGGSENVLTQSPAIVSASPGEKVTITCSASSSVSYMHWFQQKPGTSPKLVIYDTSNLASGVPARFSGSGSGTSYSLTISRMEAEDAATYYCQQRDSYPLTFGAGTKLELKRAATPVSEKQLAEVVANTITPLMKAQSVPGMAVAVIYQGKPHYYTFGKADIAANKPVTPQTLFELGSISKTFTGVLGGDAIARGEISLDDAVTRYWPQLTGKQWQGIRMLDLATYTAGGLPLQVPDEVTDNASLLRFYQNWQPQWKPGTTRLYANASIGLFGALAVKPSGMPYEQAMTTRVLKPLKLDHTWINVPKAEEAHYAWGYRDGKAVRVSPGMLDAQAYGVKTNVQDMANWVMANMAPENVADASLKQGIALAQSRYWRIGSMYQGLGWEMLNWPVEANTVVETSFGNVALAPLPVAEVNPPAPPVKASWVHKTGSTGGFGSYVAFIPEKQIGIVMLANTSYPNPARVEAAYHILEALQ
[3]
  binding result: binds
